Experimental data from paper PMC1762375.

Tests used:
Test in all cases: two-hybrid; yeast strains L40 or PJ69-4A; β-galactosidase quantitative liquid assays, fold activation with respect to the empty vector, at least four independent protein extracts
[1] = target: Cno NH, LexA bait fusion (Drosophila)
[2] = target: Cno-MP, LexA bait fusion (Drosophila) (UniProt Q24279)
[3] = target: DSH-FLN, LexA bait fusion (Drosophila) (UniProt P51140)
UniProt P51140, sequence (P51140 whole entry, the tested form may be a part): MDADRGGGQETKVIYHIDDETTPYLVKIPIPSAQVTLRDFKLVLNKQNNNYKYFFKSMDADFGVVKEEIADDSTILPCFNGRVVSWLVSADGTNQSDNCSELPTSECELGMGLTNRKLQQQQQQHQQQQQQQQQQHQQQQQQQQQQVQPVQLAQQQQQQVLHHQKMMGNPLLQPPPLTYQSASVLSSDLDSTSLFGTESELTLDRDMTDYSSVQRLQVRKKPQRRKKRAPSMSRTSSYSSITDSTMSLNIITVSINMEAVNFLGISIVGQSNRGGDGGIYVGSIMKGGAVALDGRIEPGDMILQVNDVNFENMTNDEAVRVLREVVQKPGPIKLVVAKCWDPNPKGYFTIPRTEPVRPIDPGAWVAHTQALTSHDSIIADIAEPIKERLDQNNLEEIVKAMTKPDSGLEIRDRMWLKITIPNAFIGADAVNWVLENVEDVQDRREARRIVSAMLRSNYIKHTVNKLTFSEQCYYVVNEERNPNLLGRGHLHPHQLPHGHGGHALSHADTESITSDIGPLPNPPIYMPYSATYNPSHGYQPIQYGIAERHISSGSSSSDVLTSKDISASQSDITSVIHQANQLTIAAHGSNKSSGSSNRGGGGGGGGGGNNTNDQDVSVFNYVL

UniProt Q24279, sequence (Q24279 entry or part of it): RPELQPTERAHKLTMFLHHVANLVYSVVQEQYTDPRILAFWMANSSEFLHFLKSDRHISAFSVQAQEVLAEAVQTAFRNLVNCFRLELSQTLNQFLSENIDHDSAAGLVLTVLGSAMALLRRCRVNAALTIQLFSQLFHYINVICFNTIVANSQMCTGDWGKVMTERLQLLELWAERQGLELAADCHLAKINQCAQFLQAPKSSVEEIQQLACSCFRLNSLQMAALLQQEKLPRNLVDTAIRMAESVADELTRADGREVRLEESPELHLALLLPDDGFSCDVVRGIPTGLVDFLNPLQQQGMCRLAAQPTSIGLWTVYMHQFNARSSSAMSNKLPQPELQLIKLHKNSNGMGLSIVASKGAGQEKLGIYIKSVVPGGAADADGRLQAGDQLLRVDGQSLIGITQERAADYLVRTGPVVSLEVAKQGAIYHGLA

Row | Substance | fold activation (β-galactosidase, against the empty vector) (fold activation) [1] | fold activation (β-galactosidase, against the empty vector) (fold activation) [2] | fold activation (β-galactosidase, against the empty vector) (fold activation) [3]
1 | Notch-ICN1, prey fusion (domain or fragment) | 40 | 40 | –
2 | Notch-ICN2, prey fusion (domain or fragment) | 20 | 20 | 3
